In patent US20220204580A1 (AstraZeneca / MedImmune, published 2022):
Numbered stars: 1 amine (or outer) side, 2 acyl side, 3 side chain; on linkers, the order of the positions; unused ones are H or OH. Bridge positions count the residues as written; N and C are the ends. Square brackets hold non-standard residues; d marks the D form. Side chains are listed from the residue outwards. Ends that are not written are not given here. * marks the point of attachment. C18 diacid = O=C(O)CCCCCCCCCCCCCCCCC(=O)*; γGlu = O=C(O)[C@H](CCC(=O)[*:2])N[*:1]; Aib = CC(C)(N)C(=O)O

T1: human calcitonin receptor (human, UniProt P30988 25-474)
T1 sequence (looked up): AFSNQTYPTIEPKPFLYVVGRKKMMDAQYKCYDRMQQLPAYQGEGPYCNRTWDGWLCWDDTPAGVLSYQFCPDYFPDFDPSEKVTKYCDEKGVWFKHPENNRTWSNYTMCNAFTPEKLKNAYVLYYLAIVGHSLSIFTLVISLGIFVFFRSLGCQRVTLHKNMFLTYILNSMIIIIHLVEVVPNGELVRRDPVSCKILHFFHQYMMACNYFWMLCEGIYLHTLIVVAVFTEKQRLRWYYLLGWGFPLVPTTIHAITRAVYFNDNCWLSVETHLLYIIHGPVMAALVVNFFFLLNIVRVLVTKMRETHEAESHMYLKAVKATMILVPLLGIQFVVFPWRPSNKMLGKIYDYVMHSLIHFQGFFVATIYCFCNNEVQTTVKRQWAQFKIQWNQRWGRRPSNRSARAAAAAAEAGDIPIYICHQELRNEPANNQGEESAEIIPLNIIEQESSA

T2: human amylin receptor (calcitonin receptor co-expressed with receptor activity modifying protein, RAMP3) (human, UniProt P30988 25-474; O60896 24-148)
T2 sequence (looked up) 1: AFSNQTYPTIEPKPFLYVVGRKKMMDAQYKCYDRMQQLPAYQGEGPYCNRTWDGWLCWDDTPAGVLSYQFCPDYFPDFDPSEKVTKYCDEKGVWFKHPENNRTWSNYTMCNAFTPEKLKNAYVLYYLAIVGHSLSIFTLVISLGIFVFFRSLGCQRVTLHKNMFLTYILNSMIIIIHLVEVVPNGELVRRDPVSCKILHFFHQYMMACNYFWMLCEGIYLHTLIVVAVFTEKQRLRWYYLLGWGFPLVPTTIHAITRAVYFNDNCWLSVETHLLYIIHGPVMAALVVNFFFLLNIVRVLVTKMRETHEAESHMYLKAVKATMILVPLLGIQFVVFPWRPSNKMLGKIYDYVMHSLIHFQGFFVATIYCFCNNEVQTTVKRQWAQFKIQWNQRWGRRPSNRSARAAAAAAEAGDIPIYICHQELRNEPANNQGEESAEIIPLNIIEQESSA
T2 sequence (looked up) 2: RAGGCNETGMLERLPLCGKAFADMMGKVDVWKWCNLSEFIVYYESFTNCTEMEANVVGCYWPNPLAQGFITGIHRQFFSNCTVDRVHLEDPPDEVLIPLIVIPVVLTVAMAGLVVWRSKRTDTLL


How the values were obtained:
[1] = molecular target: T1, human calcitonin receptor; test: cell-based or functional assay
[2] = molecular target: T2, human amylin receptor (calcitonin …); test: cell-based or functional assay

| Binder | EC50 (cAMP production) [1] [nM] | EC50 (cAMP production) [2] [nM] | Ratio (EC50 hCTR / EC50 hAMYR3) [2] |
| --- | --- | --- | --- |
| K([γGlu-γGlu-C18 diacid])CNTATCATQRLANFLVHSSNNFGPILPPTNVGSNTY-NH2 (disulfide 2-7) [Peptide 5 (SEQ ID NO: 5)] | 3.6 | 0.174 | 21 |
| K([γGlu-C18 diacid])KCNTATCATQRLANFL[Aib]HSS[Aib]NFGPILPPTNVGSNTY-NH2 (disulfide 3-8; N-terminus assumed; SMILES CC[C@H](C)[C@H](NC(=O)[C@@H]1CCCN1C(=O)CNC(=O)[C@H](Cc1ccccc1)NC(=O)[C@H](CC(N)=O)NC(=O)C(C)(C)NC(=O)[C@H](CO)NC(=O)[C@H](CO)NC(=O)[C@H](Cc1c[nH]cn1)NC(=O)C(C)(C)NC(=O)[C@H](CC(C)C)NC(=O)[C@H](Cc1ccccc1)NC(=O)[C@H](CC(N)=O)NC(=O)[C@H](C)NC(=O)[C@H](CC(C)C)NC(=O)[C@H](CCCNC(=N)N)NC(=O)[C@H](CCC(N)=O)NC(=O)[C@@H](NC(=O)[C@H](C)NC(=O)[C@@H]1CSSC[C@H](NC(=O)[C@H](CCCCN)NC(=O)[C@@H](N)CCCCNC(=O)CC[C@H](NC(=O)CCCCCCCCCCCCCCCCC(=O)O)C(=O)O)C(=O)N[C@@H](CC(N)=O)C(=O)N[C@@H]([C@@H](C)O)C(=O)N[C@@H](C)C(=O)N[C@@H]([C@@H](C)O)C(=O)N1)[C@@H](C)O)C(=O)N[C@@H](CC(C)C)C(=O)N1CCC[C@H]1C(=O)N1CCC[C@H]1C(=O)N[C@H](C(=O)N[C@@H](CC(N)=O)C(=O)N[C@H](C(=O)NCC(=O)N[C@@H](CO)C(=O)N[C@@H](CC(N)=O)C(=O)N[C@H](C(=O)N[C@@H](Cc1ccc(O)cc1)C(N)=O)[C@@H](C)O)C(C)C)[C@@H](C)O) [Peptide 36 (SEQ ID NO: 36)] | 6.39 | 0.331 | 19 |
| K([γGlu-C18 diacid])KCNTATCATQRLANFLSHSS[Aib]NFGPILPPTNVGSNTY-NH2 (disulfide 3-8; N-terminus assumed; SMILES CC[C@H](C)[C@H](NC(=O)[C@@H]1CCCN1C(=O)CNC(=O)[C@H](Cc1ccccc1)NC(=O)[C@H](CC(N)=O)NC(=O)C(C)(C)NC(=O)[C@H](CO)NC(=O)[C@H](CO)NC(=O)[C@H](Cc1c[nH]cn1)NC(=O)[C@H](CO)NC(=O)[C@H](CC(C)C)NC(=O)[C@H](Cc1ccccc1)NC(=O)[C@H](CC(N)=O)NC(=O)[C@H](C)NC(=O)[C@H](CC(C)C)NC(=O)[C@H](CCCNC(=N)N)NC(=O)[C@H](CCC(N)=O)NC(=O)[C@@H](NC(=O)[C@H](C)NC(=O)[C@@H]1CSSC[C@H](NC(=O)[C@H](CCCCN)NC(=O)[C@@H](N)CCCCNC(=O)CC[C@H](NC(=O)CCCCCCCCCCCCCCCCC(=O)O)C(=O)O)C(=O)N[C@@H](CC(N)=O)C(=O)N[C@@H]([C@@H](C)O)C(=O)N[C@@H](C)C(=O)N[C@@H]([C@@H](C)O)C(=O)N1)[C@@H](C)O)C(=O)N[C@@H](CC(C)C)C(=O)N1CCC[C@H]1C(=O)N1CCC[C@H]1C(=O)N[C@H](C(=O)N[C@@H](CC(N)=O)C(=O)N[C@H](C(=O)NCC(=O)N[C@@H](CO)C(=O)N[C@@H](CC(N)=O)C(=O)N[C@H](C(=O)N[C@@H](Cc1ccc(O)cc1)C(N)=O)[C@@H](C)O)C(C)C)[C@@H](C)O) [Peptide 37 (SEQ ID NO: 37)] | 1.96 | 0.249 | 8 |
